Measurements taken from patent US20200115432A1 (published 2020).

Tests used:
peptide on HLA-A*02:01 = molecular target: T1, peptide on HLA-A*02:01 (human); experiment: activation reporter or marker
T1 peptide: VYALPLKML

peptide on HLA-A*24:02 = molecular target: T2, peptide on HLA-A*24:02 (human); experiment: activation reporter or marker
T2 peptide: VYALPLKML

B1: JG9-TCR (TCR, V domains shown)
Valpha: GQQLNQSPQSMFIQEGEDVSMNCTSSSIFNTWLWYKQEPGEGPVLLIALYKAGELTSNGRLTAQFGITRKDSFLNISASIPSDVGIYFCAGPMKTSYDKVIFGPGTSLSVIP
Vbeta: DAGVIQSPRHEVTEMGQEVTLRCKPISGHDYLFWYRQTMMRGLELLIYFNNNVPIDDSGMPEDRFSAKMPNASFSTLKIQPSEPRDSAVYFCASSSANYGYTFGSGTRLTVV
binding result (peptide on HLA-A*02:01): no recognition | binding result (peptide on HLA-A*24:02): no recognition
